Common to all, as to assay type: cell-based
The test system of data set [1] is EmGFP gene in GRIPTITE HEK293 cells. Description: Sequencing analysis of FLAG tag/EcoRI insertion with +5 gRNA. The conditions noted are these: sequential delivery, 48 hours. Here is the method: In order to understand the polarity of dsDNA donor with single stranded overhangs, we inserted a FLAG epitope tag along with an EcoRI site into a separate locus where the +5 gRNA was targeting the bottom strand of EmGFP gene (see Table 21). The Cas9 RNPs were first delivered into […]™ HEK293 cells, followed by the delivery of ssDNA donor, or short dsDNA donors with 32-base single stranded overhangs at either 5′ or 3′ end. Samples in the absence of gRNA served as controls. At 48 hours post transfection, the genomic loci were amplified by PCR. The resulting PCR fragments were subjected to restriction digestion with EcoRI (data not shown) or subjected to sequencing analysis. The integration efficiency of FLAG epitope tag along with an EcoRI was approximately 34% using dsDNA donor with 3′ overhangs and 20% using ssDNA donor.

The test system of data set [2] is HEK293 cells stably expressing eBFP. In words: HDR assay, conversion of eBFP to GFP by flow cytometry. The conditions noted are these: oligonucleotide length and modification, sequential delivery, 1 nt substitution, 48 hours. The source says: To generate a HEK293FT stable cell line expressing eBFP, an eBFP ORF was synthesized by GENEART® custom DNA synthesis (Thermo Fisher Scientific) and then cloned into pDONAR221 vector. Using GATEWAY® recombination technology (Thermo Fisher Scientific), the eBFP ORF was transferred to pLenti6.2-DEST Gateway Vector and then verified by sequencing. Lentivirus was generated using VIRAPOWER® kit as described in the manual. To generate stable cell line, HEK293FT cells were transduced with 0.1 MOI of Lentivirus expressing eBFP. Three days post transduction cells were selected on 5 μg/mL Blasticidine antibiotics for 2 weeks. Cells expressing eBFP were then collected and diluted to […] in complete medium and plated into 96 well plates for single cell clone. After 2 weeks clones were isolated and verified for eBFP expression by flow cytometer. In a reporter assay using a stable eBFP-expressing HEK293 cell line, the substitution of C to T in eBFP gene converts His67 to Tyr67, generating a GFP variant (Table 5).
(§1) To create homologous recombination (HR) assays, a series of gRNAs flanking the insertion site within the EmGFP gene were designed and synthesized (Table 4). Each individual gRNA was combined with GENEART™ […]™ Cas9 Nuclease to form the Cas9 protein/gRNA ribonucleoprotein complexes (Cas9 RNPs). The Cas9 RNPs were then used to transfect cells via NEON® electroporation. The genomic cleavage efficiency was then evaluated using the GENEART® Genomic Cleavage Detection kit at 48 hours post transfection. The gRNAs with highest editing efficiencies and also in close proximity to the insertion site were selected for the subsequent HR assays. For donor design of a single-stranded oligonucleotide, typically the mutation site was positioned at the center flanked by 30 to 50 nucleotides on each side. For asymmetric donor design, 30 nucleotides were placed on either the left or right arm and then 50 or 67 nucleotides on the right or left arm respectively, in both PAM and non-PAM strands. For design of a dsDNA oligonucleotide with single-stranded overhangs, the insertion element was overlapped in the center flanked by various lengths of ssDNA oligonucleotide on each side. By annealing two single-stranded oligonucleotides at 95° C. for 3 minutes, dsDNA donor molecules with either a 5′ protrusion or a 3′ protrusion were generated. To measure homologous recombination efficiency, the donor DNA was either co-transfected with Cas9 RNPs or delivered sequentially into cells via electroporation. At 48 hours post transfection, the gain of EmGFP function in reporter cell lines was determined by flow cytometric analysis with an Attune® NxT Acoustic Focusing Cytometer (Thermo Fisher Scientific). Alternatively, the genomic loci were PCR-amplified using the corresponding primers and then subjected to GENEART® Genomic Cleavage Detection assay or restriction digestion. The resulting PCR products were also subjected to TOPO cloning. Typically, 96 colonies were randomly picked for sequencing. The sequencing data were analyzed using VECTOR NTI ADVANCE® 11.5 software (Thermo Fisher Scientific).
For each homologous recombination assay, 1.5 μg of Cas9 protein and 360 ng of gRNA were added to Resuspension Buffer R to a final volume of 7 μl, but limiting the total volume of Cas9 protein plus gRNA to less than 1 μl. The gRNA could be diluted in Buffer R if the concentration was too high. Upon mixing, the sample was incubated at room temperature for 5 to 10 minutes to form Cas9 RNPs. Meanwhile, […]™ HEK293 cells expressing either eBFP or disrupted EmGFP were detached from culture flask with TRYPLE™ Express Enzyme and then counted. Aliquots of 1×10^6 cells were washed once with DPBS without Ca^2+ and Mg^2+ and the cell pellets were resuspended in 50 μl of Resuspension Buffer R. A 5 μl aliquot of cell suspension was mixed with 7 μl of Cas9 RNPs. […] The electroporated cells were transferred to 300 μl of […]. […]
On the technique in general: A flow cytometer gives signals particle by particle.

For data set [3], the system named is eBFP genomic locus. In words: Sequencing verification of eBFP locus, 1 nt substitution (96 clones). The conditions noted are these: sequencing of 96 clones; for Relative percentage HDR / Relative percentage NHEJ / Relative percentage wt: 1 nt substitution. Here is the method: FIG. 8. Effects of oligonucleotide length and modification on HDR. (A) PAM ssDNA (6 nt insertion). […] Various length of PAM ssDNA oligonucleotide was normalized to either equal mass or equal molarity. Samples in the absence of donor (+gRNA) or gRNA (−gRNA) served as controls. The percentages of GFP-positive cells were determined by flow cytometry at 48 hours post transfection. (B) PAM ssDNA (1 nt substitution). […] The percentages of GFP-positive cells were determined by flow cytometry at 48 hours post transfection. (C) Verification by sequencing. The eBFP genomic locus was PCR-amplified, followed by cloning and Sanger sequencing of 96 samples. The relative percentage of wild type (wt), NHEJ, and HDR was plotted. (D) Examples of mutations. Examples of edited clones (not representing the actual percentages of NHEJ and HDR). FIG. 8 discloses SEQ ID NOs: 4-14, respectively, from top to bottom.
as §1
It has been reported that relatively short single-stranded oligonucleotides containing 25-61 bases homologous to the target sequence were capable of correcting a single point mutation (Igoucheva, O., Alexeev, V., Yoon, K., Targeted gene correction by small single-stranded oligonucleotides in mammalian cells, Gene Ther. 8(5):391-399 (2001)). […]

[4] abbreviates: listed as 80-base modified oligonucleotide.

Oligonucleotides are written 5' to 3', each unit as a sugar letter and its base; * is a phosphorothioate linkage, no mark a phosphodiester; rarer units and linkages stand in square brackets, end groups in braces. Plain capitals give the bases only. d = 2'-deoxy (DNA); {P} = phosphate

B1: 32-5′: short dsDNA donor with 32-base 5′ overhangs, EmGFP, SEQ ID 98 and 99 (nucleic acid)
chain 1: GCCCGTGCCCTGGCCCACCCTCGTGACCACCTGACTACAAAGACGATGACGACAAGAATTCTA
chain 2: GTCGGGGTAGCGGGCGAAGCACTGCACGCCGTAGAATTCTTGTCGTCATCGTCTTTGTAGTC
modifications: DNA, backbone and methylation of C not given here; further chemistry not fully specified
Take B1: in data set [1], the “Relative % HDR (integration of FLAG epitope tag along with EcoRI)” value is listed as 0.0%, the “Relative % NHEJ” value was determined as 78.0% and the Relative % wt is given as 22.0%. For the same molecule, the “Relative % HDR (integration of FLAG epitope tag along with EcoRI)” value in data set [1] (listed as dsDNA donor with 5′ overhangs) is recorded as “barely detectable integration product”.

B2: PS80: phosphorothioate 80-mer ssDNA, BFP point mutation, SEQ ID 49 (nucleic acid)
DNA: {P}-dG*dC*dTdGdCdCdCdGdTdGdCdCdCdTdGdGdCdCdCdAdCdCdCdTdCdGdTdGdAdCdCdAdCdCdCdTdGdAdCdCdTdAdCdGdGdCdGdTdGdCdAdGdTdGdCdTdTdCdAdGdCdCdGdCdTdAdCdCdCdCdGdAdCdCdAdCdAdT*dG*dA
Take B2: in data set [2], the “Avg (% GFP+ cells)” value worked out at 44.3%. The “Avg (% GFP+ cells)” value in data set [2] (setting [4]) is given as “approximately 45%”. In data set [3], the “overall genome modification efficiency” value was roughly 94%, the “Relative percentage HDR” value came out at 40.4%, the “Relative percentage NHEJ” value came out at 53.8% and the Relative percentage wt was determined as 5.8%. Further, in data set [3] (setting [4]), the “Relative percentage HDR” value is on record as “Approximately 40%”, the “Relative percentage NHEJ” value is on record as “approximately 54%” and the Relative percentage wt entry was “approximately 6%”.

The values above are taken from patent US10428327B2, “Compositions and methods for enhancing homologous recombination” (LIFE TECHNOLOGIES CORPORATION, priority 2016, dated 2019).
